Some results are limits rather than exact numbers.

As a reminder, the Kd is the concentration at which binding is half-saturated. In general, stoichiometry N refers to a count of units in the complex or per binding partner.

The target in experiment [1] is SARS-CoV-2 main protease with the mutations E290A and R298A (MPro^M) (SARS-CoV-2). Put plainly: enzyme kinetics (calculated from rate constants); dimer to monomers (K1); MPro^M, calculated from the slope of rate against [Mo]^2 (Eq. 3) and from k3/Ks found with GC376 (Eq. 6); buffer B, 28 °C.
The target is the same in experiment [2]. The experiment can be described thus: AUC; sedimentation velocity, 50,000 rpm, 25 °C, buffer B with 0.1% DMSO; MPro^M at 6-7 µM with GC376 at 1-50 µM.
The target is the same in experiment [3]. Put plainly: AUC; sedimentation velocity, 50,000 rpm, 25 °C, buffer A; MPro^M at 18-90 µM, without inhibitor.
Experiment [4] shares this target. The experiment can be described thus: not stated; 10 µM MPro^M with a 10-fold molar excess of GC376 (100 µM); told with the CD spectra.

As for “SARS-CoV-2 main protease with the mutations E290A and R298A (MPro^M) (enzyme)”, the Kd in experiment [1] was 6.6 mM. Also, in experiment [2], the free monomer concentration [M] at [Mo] 10 µM and GC376 10 µM stood at 5e-06 M; the stoichiometry N turned out to be 2. The same substance came in with a Kd in experiment [3] of over 0.09 mM. Besides, the percent dimeric with 10-fold molar excess of GC376 in experiment [4] amounted to 90%.
